According to patent US20090099029A1, “Methods and substrates for conducting assays” (Invitrogen Corporation, priority 2005, published 2009):

These molecules were tested on kinases of Table 6 on Myelin Basic Protein (MBP) (assay: Kinase assay using MBP substrate, ProQ Diamond stain (Table 6)). Details: kinase printed on MBP-coated slide; 20 uM ATP, 30° C.; ProQ Diamond Microarray Stain; graded Strong/Weak/Negative.
Assay type: biochemical
In short: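 Reactions ran at 30° C. with 20 uM ATP, 4 mM MgCl2 and 5% DMSO in HEPES pH 7.5, inhibitor added or omitted. Kinases had been arrayed onto slide-bound dephosphorylated bovine MBP; phospho-signal read after ProQ Diamond staining.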

Molecule	MBP Kinase Activity
STK22D(TSSK1) (protein, left off: small tags and cut ends) MDDAAVLKRRGYLLGINLGEGSYAKVKSAYSERLKFNVAIKIIDRKKAPADFLEKFLPREIEILAMLNHCSIIKTYEIFETSHGKVYIVMELAVQGDLLELIKTRGALHEDEARKKFHQLSLAIKYCHDLDVVHRDLKCDNLLLDKDFNIKLSDFSFSKRCLRDDSGRMALSKTFCGSPAYAAPEVLQGIPYQPKVYDIWSLGVILYIMVCGSMPYDDSNIKKMLRIQKEHRVNFPRSKHLTGECKDLIYHMLQPDVNRRLHIDEILSHCWMQPKARGSPSVAINKEGESSRGTEPLWTPEPGSDKKSATKLEPEGEAQPQAQPETKPEGTAMQMSRQSEILGFPSKPSTMETEEGPPQQPPETRAQ	Strong
FGFR3 (protein, left off: small tags and cut ends) RLRSPPKKGLGSPTVHKISRFPLKRQVSLESNASMSSNTPLVRIARLSSGEGPTLANVSELELPADPKWELSRARLTLGKPLGEGCFGQVVMAEAIGIDKDRAAKPVTVAVKMLKDDATDKDLSDLVSEMEMMKMIGKHKNIINLLGACTQGGPLYVLVEYAAKGNLREFLRARRPPGLDYSFDTCKPPEEQLTFKDLVSCAYQVARGMEYLASQKCIHRDLAARNVLVTEDNVMKIADFGLARDVHNLDYYKKTTNGRLPVKWMAPEALFDRVYTHQSDVWSFGVLLWEIFTLGGSPYPGIPVEELFKLLKEGHRMDKPANCTHDLYMIMRECWHAAPSQRPTFKQLVEDLDRVLTVTSTDEYLDLSAPFEQYSPGGQDTPSSSSSGDDSVFAHDLLPPAPPSSGGSRT	Strong
TTK (protein, left off: a dimerising Fc or GST) MESEDLSGRELTIDSIMNKVRDIKNKFKNEDLTDELSLNKISADTTDNSGTVNQIMMMANNPEDWLSLLLKLEKNSVPLSDALLNKLIGRYSQAIEALPPDKYGQNESFARIQVRFAELKAIQEPDDARDYFQMARANCKKFAFVHISFAQFELSQGNVKKSKQLLQKAVERGAVPLEMLEIALRNLNLQKKQLLSEEEKKNLSASTVLTAQESFSGSLGHLQNRNNSCDSRGQTTKARFLYGENMPPQDAEIGYRNSLRQTNKTKQSCPFGRVPVNLLNSPDCDVKTDDSVVPCFMKRQTSRSECRDLVVPGSKPSGNDSCELRNLKSVQNSHFKEPLVSDEKSSELIITDSITLKNKTESSLLAKLEETKEYQEPEVPESNQKQWQSKRKSECINQNPAASSNHWQIPELARKVNTEQKHTTFEQPVFSVSKQSPPISTSKWFDPKSICKTPSSNTLDDYMSCFRTPVVKNDFPPACQLSTPYGQPACFQQQQHQILATPLQNLQVLASSSANECISVKGRIYSILKQIGSGGSSKVFQVLNEKKQIYAIKYVNLEEADNQTLDSYRNEIAYLNKLQQHSDKIIRLYDYEITDQYIYMVMECGNIDLNSWLKKKKSIDPWERKSYWKNMLEAVHTIHQHGIVHSDLKPANFLIVDGMLKLIDFGIANQMQPDTTSVVKDSQVGTVNYMPPEAIKDMSSSRENGKSKSKISPKSDVWSLGCILYYMTYGKTPFQQIINQISKLHAIIDPNHEIEFPDIPEKDLQDVLKCCLKRDPKQRISIPELLAHPYVQIQTHPVNQMAKGTTEEMKYVLGQLVGLNSPNSILKAAKTLYEHYSGGESHNSSSSKTFEKKRGKK	Negative
FGFR2 (protein, left off: small tags and cut ends) RMKNTTKKPDFSSQPAVHKLTKRIPLRRQVTVSAESSSSMNSNTPLVRITTRLSSTADTPMLAGVSEYELPEDPKWEFPRDKLTLGKPLGEGCFGQVVMAEAVGIDKDKPKEAVTVAVKMLKDDATEKDLSDLVSEMEMMKMIGKHKNIINLLGACTQDGPLYVIVEYASKGNLREYLRARRPPGMEYSYDINRVPEEQMTFKDLVSCTYQLARGMEYLASQKCIHRDLAARNVLVTENNVMKIADFGLARDINNIDYYKKTTNGRLPVKWMAPEALFDRVYTHQSDVWSFGVLMWEIFTLGGSPYPGIPVEELFKLLKEGHRMDKPANCTNELYMMMRDCWHAVPSQRPTFKQLVEDLDRILTLTTNEEYLDLSQPLEQYSPSYPDTRSSCSSGDDSVFSPDPMPYEPCLPQYPHINGSVKT	Strong
SRPK2 (protein, left off: a dimerising Fc or GST) MSSRKVLAIQARKRRPKREKHPKKPEPQQKAPLVPPPPPPPPPPPPPLPDPTPPEPEEEILGSDDEEQEDPADYCKGGYHPVKIGDLFNGRYHVIRKLGWGHFSTVWLCWDMQGKRFVAMKVVKSAQHYTETALDEIKLLKCVRESDPSDPNKDMVVQLIDDFKISGMNGIHVCMVFEVLGHHLLKWIIKSNYQGLPVRCVKSIIRQVLQGLDYLHSKCKIIHTDIKPENILMCVDDAYVRRMAAEATEWQKAGAPPPSGSAVSTAPQQKPIGKISKNKKKKLKKKQKRQAELLEKRLQEIEELEREAERKIIEENITSAAPSNDQDGEYCPEVKLKTTGLEEAAEAETAKDNGEAEDQEEKEDAEKENIEKDEDDVDQELANIDPTWIESPKTNGHIENGPFSLEQQLDDEDDDEEDCPNPEEYNLDEPNAESDYTYSSSYEQFNGELPNGRHKIPESQFPEFSTSLFSGSLEPVACGSVLSEGSPLTEQEESSPSHDRSRTVSASSTGDLPKAKTRAADLLVNPLDPRNADKIRVKIADLGNACWVHKHFTEDIQTRQYRSIEVLIGAGYSTPADIWSTACMAFELATGDYLFEPHSGEDYSRDEDHIAHIIELLGSIPRHFALSGKYSREFFNRRGELRHITKLKPWSLFDVLVEKYGWPHEDAAQFTDFLIPMLEMVPEKRASAGECLRHPWLNS	Strong
FGFR4 (protein, left off: small tags and cut ends) RGQALHGRHPRPPATVQKLSRFPLARQFSLESGSSGKSSSSLVRGVRLSSSGPALLAGLVSLDLPLDPLWEFPRDRLVLGKPLGEGCFGQVVRAEAFGMDPARPDQASTVAVKMLKDNASDKDLADLVSEMEVMKLIGRHKNIINLLGVCTQEGPLYVIVECAAKGNLREFLRARRPPGPDLSPDGPRSSEGPLSFPVLVSCAYQVARGMQYLESRKCIHRDLAARNVLVTEDNVMKIADFGLARGVHHIDYYKKTSNGRLPVKWMAPEALFDRVYTHQSDVWSFGILLWEIFTLGGSPYPGIPVEELFSLLREGHRMDRPPHCPPELYGLMRECWHAAPSQRPTFKQLVEALDKVLLAVSEEYLDLRLTFGPYSPSGGDASSTCSSSDSVFSHDPLPLGSSSFPFGSGVQT	Strong
TAOK2(TAO1) (protein, left off: a dimerising Fc or GST) MPAGGRAGSLKDPDVAELFFKDDPEKLFSDLREIGHGSFGAVYFARDVRNSEVVAIKKMSYSGKQSNEKWQDIIKEVRFLQKLRHPNTIQYRGCYLREHTAWLVMEYCLGSASDLLEVHKKPLQEVEIAAVTHGALQGLAYLHSHNMIHRDVKAGNILLSEPGLVKLGDFGSASIMAPANSFVGTPYWMAPEVILAMDEGQYDGKVDVWSLGITCIELAERKPPLFNMNAMSALYHIAQNESPVLQSGHWSEYFRNFVDSCLQKIPQDRPTSEVLLKHRFVLRERPPTVIMDLIQRTKDAVRELDNLQYRKMKK	Strong
STK17A(DRAK1) (protein, left off: a dimerising Fc or GST) MIPLEKPGSGGSSPGATSGSGRAGRGLSGPCRPPPPPQARGLLTEIRAVVRTEPFQDGYSLCPGRELGRGKFAVVRKCIKKDSGKEFAAKFMRKRRKGQDCRMEIIHEIAVLELAQDNPWVINLHEVYETASEMILVLEYAAGGEIFDQCVADREEAFKEKDVQRLMRQILEGVHFLHTRDVVHLDLKPQNILLTSESPLGDIKIVDFGLSRILKNSEELREIMGTPEYVAPEILSYDPISMATDMWSIGVLTYVMLTGISPFLGNDKQETFLNISQMNLSYSEEEFDVLSESAVDFIRTLLVKKPEDRATAEECLKHPWLTQSSIQEPSFRMEKALEEANALQEGHSVPEINSDTDKSETKESIVTEELIVVTSYTLGQCRQSEKEKMEQKAISKRFKFEEPLLQEIPGEFIY	Negative
TAOK3(JIK) (protein, left off: a dimerising Fc or GST) MRKGVLKDPEIADLFYKDDPEELFIGLHEIGHGSFGAVYFATNAHTSEVVAIKKMSYSGKQTHEKWQDILKEVKFLRQLKHPNTIEYKGCYLKEHTAWLVMEYCLGSASDLLEVHKKPLQEVEIAAITHGALHGLAYLHSHALIHRDIKAGNILLTEPGQVKLADFGSASMASPANSFVGTPYWMAPEVILAMDEGQYDGKVDIWSLGITCIELAERKPPLFNMNAMSALYHIAQNDSPTLQSNEWTDSFRRFVDYCLQKIPQERPTSAELLRHDFVRRDRPLRVLIDLIQRTKDAVRELDNLQYRKMKKILFQETRNGPLNESQEDEEDSEHGTSLNREMDSLGSNHSIPSMSVSTGSQSSSVNSMQEVMDESSSELVMMHDDESTINSSSSVVHKKDHVFIRDEAGHGDPRPEPRPTQSVQSQALHYRNRERFATIKSASLVTRQIHEHEQENELREQMSGYKRMRRQHQKQLIALENKLKAEMDEHRLKLQKEVETHANNSSIELEKLAKKQVAIIEKEAKVAAADEKKFQQQILAQQKKDLTTFLESQKKQYKICKEKIKEEMNEDHSTPKKEKQERISKHKENLQHTQAEEEAHLLTQQRLYYDKNCRFFKRKIMIKRHEVEQQNIREELNKKRTQKEMEHAMLIRHDESTRELEYRQLHTLQKLRMDLIRLQHQTELENQLEYNKRRERELHRKHVMELRQQPKNLKAMEMQIKKQFQDTCKVQTKQYKALKNHQLEVTPKNEHKTILKTLKDEQTRKLAILAEQYEQSINEMMASQALRLDEAQEAECQALRLQLQQEMELLNAYQSKIKMQTEAQHERELQKLEQRVSLRRAHLEQKIEEELAALQKERSERIKNLLERQEREIETFDMESLRMGFGNLVTLDFPKEDYR	Strong
STK22B(TSSK2) (protein, left off: small tags and cut ends) MDDATVLRKKGYIVGINLGKGSYAKVKSAYSERLKFNVAVKIIDRKKTPTDFVERFLPREMDILATVNHGSIIKTYEIFETSDGRIYIIMELGVQGDLLEFIKCQGALHEDVARKMFRQLSSAVKYCHDLDIVHRDLKCENLLLDKDFNIKLSDFGFSKRCLRDSNGRIILSKTFCGSAAYAAPEVLQSIPYQPKVYDIWSLGVILYIMVCGSMPYDDSDIRKMLRIQKEHRVDFPRSKNLTCECKDLIYRMLQPDVSQRLHIDEILSHSWLQPPKPKATSSASFKREGEGKYRAECKLDTKTGLRPDHRPDHKLGAKTQHRLLVVPENENRMEDRLAETSRAKDHHISGAEVGKAST	Negative
